In paper PMC12588282 (Science Advances, 2025):
“And” between values parts separate entries of the source, which are not always exact repeats. Equal values may be shown once.

Assays:
[1] = biological target: Fc region of the Xenopus laevis IgX heavy chain (Cχ2, Cχ3, Cχ4 and χtp) (Xenopus laevis); experiment: 2D cryo-EM classification
[2] = biological target: Fragment of Fcχ consisting of Cχ3, Cχ4 and χtp (Xenopus laevis); experiment: 2D cryo-EM classification
[3] = biological target: Fragment of Fcχ consisting of Cχ3, Cχ4 and χtp (Xenopus laevis); experiment: cryo-EM structure
[4] = biological target: Human Fcμ variant with the tailpiece truncated to 13 residues (human); experiment: 2D cryo-EM classification
[5] = biological target: Human Fcμ variant with the tailpiece truncated to 13 residues (human); experiment: native gel or EMSA
[6] = biological target: Human Fcμ variant with the tailpiece truncated to 14 residues (human); experiment: 2D cryo-EM classification
[7] = biological target: Human Fcμ variant with the tailpiece truncated to 14 residues (human); experiment: native gel or EMSA
[8] = biological target: Human Fcμ variant with the tailpiece truncated to 15 residues (human); experiment: 2D cryo-EM classification
[9] = biological target: Human Fcμ variant with the tailpiece truncated to 15 residues (human); experiment: native gel or EMSA
[10] = biological target: Human Fcμ variant with the tailpiece truncated to 16 residues (human); experiment: 2D cryo-EM classification
[11] = biological target: Human Fcμ variant with the tailpiece truncated to 16 residues (human); experiment: native gel or EMSA
[12] = biological target: Human Fcμ variant with the tailpiece truncated to 17 residues (human); experiment: 2D cryo-EM classification
[13] = biological target: Recombinant human Fcμ with an intact 18-amino acid tailpiece (human); experiment: 2D cryo-EM classification
[14] = biological target: Recombinant human Fcμ with an intact 18-amino acid tailpiece (human); experiment: AUC
AUC = biological target: the molecule itself; experiment: AUC
[15] = biological target: the molecule itself; experiment: 2D cryo-EM classification

Fc region of the Xenopus laevis IgX heavy chain (Cχ2, Cχ3, Cχ4 and χtp) (domain or fragment)
stoichiometry N [1]: 6

Fragment of Fcχ consisting of Cχ3, Cχ4 and χtp (domain or fragment)
stoichiometry N [2]: 6
stoichiometry N [3]: 6

Human Fcμ variant with the tailpiece truncated to 13 residues (domain or fragment)
stoichiometry N [4]: 6
stoichiometry N [5]: 6

Human Fcμ variant with the tailpiece truncated to 14 residues (domain or fragment)
stoichiometry N [6]: 6
stoichiometry N [7]: 6

Human Fcμ variant with the tailpiece truncated to 15 residues (domain or fragment)
stoichiometry N [8]: 6
stoichiometry N [9]: 6

Human Fcμ variant with the tailpiece truncated to 16 residues (domain or fragment)
stoichiometry N [10]: 6
stoichiometry N [11]: 6

Human Fcμ variant with the tailpiece truncated to 17 residues (domain or fragment)
stoichiometry N [12]: 6 and 5

Recombinant human Fcμ with an intact 18-amino acid tailpiece (domain or fragment)
stoichiometry N [13]: 6 and 4 and 5
stoichiometry N [14]: 4 and 5 and 6

B1: Human Fcμ variant with the tailpiece truncated to 11 residues (domain or fragment)
chain: IAELPPKVSVFVPPRDGFFGNPRKSKLICQATGFSPRQIQVSWLREGKQVGSGVTTDQVQAEAKESGPTTYKVTSTLTIKESDWLGQSMFTCRVDHRGLTFQQNASSMCVPDQDTAIRVFAIPPSFASIFLTKSTKLTCLVTDLTTYDSVTISWTRQNGEAVKTHTNISESHPNATFSAVGEASICEDDWNSGERFTCTVTHTDLPSPLKQTISRPKGVALHRPDVYLLPPAREQLNLRESATITCLVTGFSPADVFVQWMQRGQPLSPEKYVTSAPMPEPQAPGRYFAHSILTVSEEEWNTGETYTCVVAHEALPNRVTERTVDKSTGKPTLYNVSLVMS
modifications: glycosylation at Asn563
stoichiometry N (AUC): 6

B2: Human Fcμ variant with the tailpiece truncated to 12 residues (domain or fragment)
chain: IAELPPKVSVFVPPRDGFFGNPRKSKLICQATGFSPRQIQVSWLREGKQVGSGVTTDQVQAEAKESGPTTYKVTSTLTIKESDWLGQSMFTCRVDHRGLTFQQNASSMCVPDQDTAIRVFAIPPSFASIFLTKSTKLTCLVTDLTTYDSVTISWTRQNGEAVKTHTNISESHPNATFSAVGEASICEDDWNSGERFTCTVTHTDLPSPLKQTISRPKGVALHRPDVYLLPPAREQLNLRESATITCLVTGFSPADVFVQWMQRGQPLSPEKYVTSAPMPEPQAPGRYFAHSILTVSEEEWNTGETYTCVVAHEALPNRVTERTVDKSTGKPTLYNVSLVMSD
stoichiometry N [15]: 6

B3: Human Fcμ variant with the tailpiece truncated to 10 residues (domain or fragment)
chain: IAELPPKVSVFVPPRDGFFGNPRKSKLICQATGFSPRQIQVSWLREGKQVGSGVTTDQVQAEAKESGPTTYKVTSTLTIKESDWLGQSMFTCRVDHRGLTFQQNASSMCVPDQDTAIRVFAIPPSFASIFLTKSTKLTCLVTDLTTYDSVTISWTRQNGEAVKTHTNISESHPNATFSAVGEASICEDDWNSGERFTCTVTHTDLPSPLKQTISRPKGVALHRPDVYLLPPAREQLNLRESATITCLVTGFSPADVFVQWMQRGQPLSPEKYVTSAPMPEPQAPGRYFAHSILTVSEEEWNTGETYTCVVAHEALPNRVTERTVDKSTGKPTLYNVSLVM
stoichiometry N [15]: 6 and 4
